This note sets out measurements from US20150259402A1 (EVEC, published 2015).

Assay [1] has as its target Clostridium difficile toxin B (Clostridium difficile, UniProt P18177 2-2366). Put plainly: cell-based or functional assay.
In assay [2] the target is T1, toxin B fragment 4 (receptor-binding domain, amino acids 1777 to 2366 of toxin B) (Clostridium difficile, UniProt P18177 1777-2366).
T1 construct: also called RB domain
Put plainly: Western blotting on E. coli lysates of toxin B fragments. Background: Immunoblotting shows a protein as a band on a membrane.

In assay [3] the target is T2, Clostridium difficile toxin A (Clostridium difficile, UniProt P16154 1-2710). Put plainly: cell-based or functional assay.
Assay [4] deals with T3, toxin A fragment 4 (receptor-binding domain, amino acids 1853 to 2710 of toxin A) (Clostridium difficile, UniProt P16154 1853-2710).
T3 construct: also called RB domain
Put plainly: Western blotting on E. coli lysates of toxin A fragments.

Assay [5] deals with T2, Clostridium difficile toxin A. Put plainly: SPR, Biacore T200, biotinylated toxin A on sensor chip CAP, antibody flowed.

T2 sequence (P16154 whole entry, the tested form may be a part): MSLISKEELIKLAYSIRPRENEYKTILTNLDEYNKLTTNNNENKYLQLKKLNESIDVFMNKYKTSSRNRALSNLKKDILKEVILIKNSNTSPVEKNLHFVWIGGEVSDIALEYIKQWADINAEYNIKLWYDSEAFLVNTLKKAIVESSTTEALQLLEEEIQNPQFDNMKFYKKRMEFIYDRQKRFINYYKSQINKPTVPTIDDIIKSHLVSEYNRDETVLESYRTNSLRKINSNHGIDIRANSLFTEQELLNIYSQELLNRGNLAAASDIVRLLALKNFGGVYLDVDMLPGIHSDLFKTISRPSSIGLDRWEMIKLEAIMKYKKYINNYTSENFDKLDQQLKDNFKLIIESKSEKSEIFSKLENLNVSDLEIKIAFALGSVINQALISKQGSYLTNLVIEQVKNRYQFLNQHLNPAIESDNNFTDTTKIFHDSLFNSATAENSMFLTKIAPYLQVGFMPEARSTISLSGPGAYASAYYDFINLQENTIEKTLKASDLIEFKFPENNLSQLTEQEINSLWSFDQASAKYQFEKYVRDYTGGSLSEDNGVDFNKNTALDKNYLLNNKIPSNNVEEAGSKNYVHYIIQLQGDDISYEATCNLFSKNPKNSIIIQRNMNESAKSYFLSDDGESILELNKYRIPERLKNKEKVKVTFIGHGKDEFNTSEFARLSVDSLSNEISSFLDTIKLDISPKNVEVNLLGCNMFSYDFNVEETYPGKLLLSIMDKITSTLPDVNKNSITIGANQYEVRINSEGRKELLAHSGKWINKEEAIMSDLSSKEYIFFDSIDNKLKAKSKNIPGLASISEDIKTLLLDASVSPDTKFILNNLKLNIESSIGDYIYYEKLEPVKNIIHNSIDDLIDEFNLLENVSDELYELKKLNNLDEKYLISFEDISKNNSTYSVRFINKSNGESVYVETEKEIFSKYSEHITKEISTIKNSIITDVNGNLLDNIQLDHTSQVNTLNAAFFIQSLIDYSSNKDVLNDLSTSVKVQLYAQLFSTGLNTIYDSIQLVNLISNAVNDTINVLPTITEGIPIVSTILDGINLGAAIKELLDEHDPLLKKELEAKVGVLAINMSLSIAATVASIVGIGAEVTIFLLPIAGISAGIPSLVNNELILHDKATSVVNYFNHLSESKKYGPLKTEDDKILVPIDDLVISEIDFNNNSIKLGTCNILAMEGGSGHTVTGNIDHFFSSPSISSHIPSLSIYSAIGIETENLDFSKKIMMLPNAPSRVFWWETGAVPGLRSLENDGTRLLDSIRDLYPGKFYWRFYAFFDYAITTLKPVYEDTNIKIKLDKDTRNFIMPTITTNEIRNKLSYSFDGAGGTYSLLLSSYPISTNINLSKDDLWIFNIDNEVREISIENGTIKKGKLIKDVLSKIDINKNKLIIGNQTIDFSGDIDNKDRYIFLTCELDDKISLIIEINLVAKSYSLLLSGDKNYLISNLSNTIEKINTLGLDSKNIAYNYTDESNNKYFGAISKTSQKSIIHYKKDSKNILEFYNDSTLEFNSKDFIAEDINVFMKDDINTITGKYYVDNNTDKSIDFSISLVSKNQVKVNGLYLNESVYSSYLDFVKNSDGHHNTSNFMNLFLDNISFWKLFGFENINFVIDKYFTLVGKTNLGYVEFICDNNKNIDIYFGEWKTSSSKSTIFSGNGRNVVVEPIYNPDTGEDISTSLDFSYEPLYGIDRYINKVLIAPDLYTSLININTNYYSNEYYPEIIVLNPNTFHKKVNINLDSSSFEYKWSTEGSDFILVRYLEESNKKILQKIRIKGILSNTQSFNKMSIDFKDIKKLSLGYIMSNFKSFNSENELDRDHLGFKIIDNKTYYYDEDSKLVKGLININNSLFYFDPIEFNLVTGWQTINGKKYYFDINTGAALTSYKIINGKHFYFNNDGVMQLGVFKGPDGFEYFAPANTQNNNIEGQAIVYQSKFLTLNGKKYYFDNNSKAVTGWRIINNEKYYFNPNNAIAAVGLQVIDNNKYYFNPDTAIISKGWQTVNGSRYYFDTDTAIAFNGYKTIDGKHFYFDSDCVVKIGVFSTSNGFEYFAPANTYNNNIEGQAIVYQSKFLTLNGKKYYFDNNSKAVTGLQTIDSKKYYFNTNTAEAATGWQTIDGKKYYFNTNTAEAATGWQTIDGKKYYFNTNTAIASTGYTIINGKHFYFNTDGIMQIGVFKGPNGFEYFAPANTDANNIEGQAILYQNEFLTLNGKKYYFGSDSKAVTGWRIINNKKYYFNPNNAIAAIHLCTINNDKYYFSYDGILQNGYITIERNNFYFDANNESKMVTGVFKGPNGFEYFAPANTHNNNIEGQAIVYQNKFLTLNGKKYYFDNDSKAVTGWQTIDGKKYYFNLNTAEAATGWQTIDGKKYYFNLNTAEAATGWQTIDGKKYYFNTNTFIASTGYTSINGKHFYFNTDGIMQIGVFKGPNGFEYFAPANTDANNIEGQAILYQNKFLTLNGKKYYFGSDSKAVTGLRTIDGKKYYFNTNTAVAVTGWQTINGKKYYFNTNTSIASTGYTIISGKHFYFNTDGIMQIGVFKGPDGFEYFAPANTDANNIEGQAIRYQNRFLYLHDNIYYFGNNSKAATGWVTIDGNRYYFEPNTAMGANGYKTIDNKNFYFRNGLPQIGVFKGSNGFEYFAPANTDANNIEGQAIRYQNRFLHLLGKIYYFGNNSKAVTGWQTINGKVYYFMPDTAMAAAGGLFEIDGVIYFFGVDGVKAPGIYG
Sequence of Clostridium difficile toxin B (P18177 2-2366 limits assumed): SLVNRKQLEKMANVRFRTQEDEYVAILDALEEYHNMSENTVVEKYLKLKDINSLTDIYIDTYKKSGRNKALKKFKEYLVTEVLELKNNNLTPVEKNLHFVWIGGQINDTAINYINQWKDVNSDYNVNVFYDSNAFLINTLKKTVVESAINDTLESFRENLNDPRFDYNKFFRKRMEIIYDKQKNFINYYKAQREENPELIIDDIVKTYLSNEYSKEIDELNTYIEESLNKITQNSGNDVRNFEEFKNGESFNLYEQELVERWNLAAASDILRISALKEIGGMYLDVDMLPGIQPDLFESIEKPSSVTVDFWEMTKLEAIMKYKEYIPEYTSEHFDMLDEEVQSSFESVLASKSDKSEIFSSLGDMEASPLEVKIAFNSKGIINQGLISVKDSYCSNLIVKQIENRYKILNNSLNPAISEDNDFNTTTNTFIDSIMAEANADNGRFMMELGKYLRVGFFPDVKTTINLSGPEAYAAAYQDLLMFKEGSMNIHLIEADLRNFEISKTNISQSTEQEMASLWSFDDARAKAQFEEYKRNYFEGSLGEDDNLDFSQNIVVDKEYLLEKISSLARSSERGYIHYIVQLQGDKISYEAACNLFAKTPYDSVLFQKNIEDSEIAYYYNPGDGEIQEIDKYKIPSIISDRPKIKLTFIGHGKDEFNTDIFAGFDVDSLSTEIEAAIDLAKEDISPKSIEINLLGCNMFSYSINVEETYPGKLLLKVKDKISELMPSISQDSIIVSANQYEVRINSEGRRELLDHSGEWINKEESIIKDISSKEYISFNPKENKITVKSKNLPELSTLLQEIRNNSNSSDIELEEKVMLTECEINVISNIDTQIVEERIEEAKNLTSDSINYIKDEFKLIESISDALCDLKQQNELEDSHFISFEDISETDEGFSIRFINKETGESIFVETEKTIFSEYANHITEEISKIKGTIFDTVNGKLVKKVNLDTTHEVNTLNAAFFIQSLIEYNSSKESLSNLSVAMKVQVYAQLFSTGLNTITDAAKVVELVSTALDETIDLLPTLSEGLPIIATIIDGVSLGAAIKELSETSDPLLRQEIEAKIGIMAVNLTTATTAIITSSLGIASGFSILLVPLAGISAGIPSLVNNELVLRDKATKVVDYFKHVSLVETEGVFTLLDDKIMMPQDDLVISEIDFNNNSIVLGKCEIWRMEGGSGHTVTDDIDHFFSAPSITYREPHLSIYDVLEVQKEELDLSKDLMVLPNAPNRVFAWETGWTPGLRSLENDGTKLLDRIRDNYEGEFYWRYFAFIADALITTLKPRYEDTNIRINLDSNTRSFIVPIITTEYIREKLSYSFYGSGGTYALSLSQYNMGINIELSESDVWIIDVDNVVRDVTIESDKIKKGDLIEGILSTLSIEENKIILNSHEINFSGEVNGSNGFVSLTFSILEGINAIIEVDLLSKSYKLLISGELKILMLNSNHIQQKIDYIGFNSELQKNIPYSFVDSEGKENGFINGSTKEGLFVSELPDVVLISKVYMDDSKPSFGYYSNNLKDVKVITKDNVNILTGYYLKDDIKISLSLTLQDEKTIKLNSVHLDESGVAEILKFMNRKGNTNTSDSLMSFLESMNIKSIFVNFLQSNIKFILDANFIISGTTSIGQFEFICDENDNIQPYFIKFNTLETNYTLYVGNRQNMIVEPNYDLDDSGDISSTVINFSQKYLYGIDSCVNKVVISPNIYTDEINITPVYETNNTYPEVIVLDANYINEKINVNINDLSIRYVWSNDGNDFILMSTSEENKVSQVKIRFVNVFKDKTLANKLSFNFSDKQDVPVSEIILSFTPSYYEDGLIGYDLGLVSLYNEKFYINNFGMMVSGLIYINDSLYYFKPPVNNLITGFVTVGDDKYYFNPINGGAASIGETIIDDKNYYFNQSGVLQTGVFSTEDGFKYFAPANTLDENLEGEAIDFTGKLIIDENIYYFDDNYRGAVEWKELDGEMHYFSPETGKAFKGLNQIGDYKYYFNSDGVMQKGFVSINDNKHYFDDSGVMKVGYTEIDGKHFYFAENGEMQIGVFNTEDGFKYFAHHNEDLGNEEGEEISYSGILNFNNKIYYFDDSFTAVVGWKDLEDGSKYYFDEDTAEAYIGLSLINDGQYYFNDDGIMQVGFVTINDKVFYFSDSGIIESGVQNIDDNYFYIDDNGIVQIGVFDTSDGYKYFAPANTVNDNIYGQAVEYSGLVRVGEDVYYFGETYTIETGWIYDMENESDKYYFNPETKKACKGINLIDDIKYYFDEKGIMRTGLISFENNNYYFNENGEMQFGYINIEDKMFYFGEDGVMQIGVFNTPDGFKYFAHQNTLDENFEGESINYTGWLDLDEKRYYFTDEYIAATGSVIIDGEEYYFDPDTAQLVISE

B1: EV029104 (antibody, human IgG1, lambda, V domains shown)
VH: EVQLVESGGGLVQPGGSLRLSCAASGLTINSYWMNWVRQIPGKGLEWVANINPTGSQQYYVDSVRGRFTISRDDAKKSLFLQLDSLRVEDTAVYYCARGRRGNSAYCDSWGQGTQVTVSS
VL: QSALTQPRSVSGSPGQSVTISCTGTSSDIGAYDYVSWYRHHPGKAPKLIIFDVAKWPSGVPDRFSGSKSGNTASLTISGLQDDDEGDYYCCSYAGRFSLIFGGGTKLTVLG
notes: also called anti-toxin B antibody EV029104
In the case of B1, the “neutralizing activity (EC50 value), rounding of toxin B-exposed IMR-90 cells” value in assay [1] is not above 100 ng/mL. Moreover, in assay [2], the binding result is “binds”.

B2: EV029105a (antibody, human IgG1, kappa, V domains shown)
VH: QVQLVQSGAEVKKPGSSVKVSCKASGDTFSSHAITWVRQAPGQGLEWMGRIIPIFSISDYAQKFQGRVTFTADKSTSIAFMELSSLRSQDTAVYYCARSLLAYCTGGSCSEFGAEDHWGQGTLVTVSS
VL: EIVLTQSPGTLSLSPGERATLSCRASQSVSSNYLAWYQQKPGQAPRLLIFGASSRATGIPDRFSGSGSGTDFTLTISRLEPEDFAVYYCQQYGSSIPVTFGQGTKVEIKR
notes: also called anti-toxin A antibody EV029105a
As to B2, in assay [3], the “EC50 (ng/mL), neutralizing activity against the cytotoxicity of toxin A to IMR-90 cells (cell rounding)” value came to 4.92 ng/mL and the “EC50, neutralizing activity against the cytotoxicity of toxin A to IMR-90 cells (cell rounding)” value is 0.033 nM. For the same molecule, in assay [4], the binding result is on record as “binds”. In assay [5], this molecule displayed a Kd of 0.151 nM, a koff of 9.89e-05 s⁻¹ and a kon of 653000 M⁻¹ s⁻¹.

A word on the Kd: it is the equilibrium constant for the complex coming apart. Lower therefore signals tighter binding. What is called koff is a measure of how fast the partners let go of each other. A low value points to a long-lived complex. As a reminder, the kon is the rate constant with which the complex forms. Higher therefore signals fast association.
